According to paper PMC314469, “Protein Interaction Networks by Proteome Peptide Scanning” (PLoS Biology, 2004):

Target: Sho1 SH3 (SHO1_YEAST), P40073
Test: SPOT array

Sho1 SH3 (SHO1_YEAST), P40073, sequence (P40073 295-366): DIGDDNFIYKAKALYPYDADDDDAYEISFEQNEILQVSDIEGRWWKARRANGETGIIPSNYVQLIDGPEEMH

| normalised SPOT signal, Boehringer light units (BLU); mean over the file's lines of this peptide | Binder |
| --- | --- |
| 3660 | WKPPDLPIRLRKRP [502-515 Ubiquitin-specific protease] |
| 235 | VSTPPVPKKFQEIF [9-22 cox1 pre-mRNA splicing factor] |
| 120 | VTLPISPSRASISF [70-83 Hypothetical ORF] |
| 160 | VKRPLSPTRINGKS |
| 513 | VIRPGVPTKFTKKQ [1275-1288 Glutamate synthase (NADPH)] |
| 1240 | WNLPWSPFKITTIM [95-108 Translation initiation factor eIF-2B epsilon subunit] |
| 128 | VHDPNIPLRPKEII [643-656 Ubiquitin-protein ligase] |
| 129 | VTVPKLPFKLAVNK [181-194 integral membrane protein] |
| 290 | YILPKNPFRVPSEM [125-138 Hypothetical ORF] |
| 150 | VVSPSHPFKQLQKI [146-159 (putative) involved in cell wall biogenesis] |
| 136 | VTLPTGPAKIIWEK [510-523 cytochrome P450 lanosterol 14a-demethylase] |
| 691 | VKHPMKPFRLMLTD [43-56 (putative) histone deacetylase] |
| 94.6 | VSIPFDPSKDTFDH [741-754 P-type ATPase] |
| 195 | YKIPVVPPRETYFA [507-520 involved in cell wall biogenesis] |
| 392 | VSDPYVPTRNTFNY [142-155 ubiquitin-mediated 26S proteasome subunit] |
| 121 | VLEPSKPYKKNPFM [663-676 Hypothetical ORF] |
| 88 | VHGPGVPVKTLEIA [386-399 MAL-activator protein] |
| 198 | VHGPGIPMKSLEVA [381-394 MAL-activator protein] |
| 198 | YGPPTDPRKQKQAK [36-49 neutral trehalase] |
| 898 | WSYPYEPLRVLQVG [17-30 Hypothetical ORF] |
| 128 | VQQPEDPLRVLGEY [143-156 Hypothetical ORF] |
| 58 | VVIPPVPSRYSDER [95-108 Product of gene unknown] |
| 11300 | VPPPNVPKKDKREV [659-672 Ubiquitin-specific protease] |
